Columns and labels:
[1] = Maximum tolerated dose (MTD) study; assay type: in vivo, BALB/c Nude mice; settings: for body weight loss: after 48 hrs
Protocol: BALB/c Nude mice, female, 6-8 weeks, weighing approximately 18-22 g were purchased from the Shanghai SLAC Laboratory Animal Co., LTD. MTD studies were conducted at WuXi AppTec and the care and use of animals was conducted in accordance with the regulations of the Association for Assessment and Accreditation of Laboratory Animal Care (AAALAC). Two MTD studies were performed (a) a low dose study with doses ranging from 0.1, 0.5, 1 and 3 mg/kg and (b) a high dose study with doses ranging from 3, 5, 10 mg/kg. Dosing volume was determined based on body weight (10 ul/g) and PDCs were dissolved in 25 mM Histidine 10% sucrose pH 7 and administered i.v. at a single dose at day 0. The treatment and observation were conducted up to 7 days and MTD was defined by ≥20% body weight loss. Body weights were measured daily, death and observed clinical signs were recorded.
Doses of 3, 5, and 10 mg/kg were administered. MTD was defined by ≥20% body weight loss and body weight measured daily.

[2] = Murine hematotoxicity assay; assay type: in vivo, BALB/c mice; settings: 3 mg/kg i.v. QW×4, compared to vehicle or MMAE treatment
Protocol: Murine hematotoxicity experiments were conducted at Charles River Laboratories and the care and use of animals was conducted in accordance with the regulations of the Association for Assessment and Accreditation of Laboratory Animal Care (AAALAC). Wild type BALB/c, female, 7-8 weeks, weighing approximately 18-22 g were randomized and dosed intravenously with control or test articles at a QW×4 schedule. Dosing volume was adjusted based on body weight and was administered at 10 mL/Kg. PDCs were dissolved in 25 mM Histidine 10% sucrose pH 7 and 3 mg/kg was administered. Free MMAE payload was also tested, and similarly dissolved in 25 mM Histidine 10% sucrose pH 7 and administered to the mice at a dose of […] by i.v. injection at a QW×4 schedule. 3 days following each dose, 150 μL of whole blood was collected via submandibular method and placed in K2 EDTA tubes stored on ice. Blood neutrophil counts were performed on the day of collection by IDEXX labs. Body weights were recorded twice a week until study endpoint.
As outlined in the material and methods of Example 1, wild type BALB/c, female, 7-8 weeks, weighing approximately 18-22 g were randomized and dosed intravenously with control or test articles at a QW×4 schedule. Dosing volume was adjusted based on body weight and was administered at 10 ml/Kg. […] Free MMAE payload was also tested, and similarly dissolved in 25 mM Histidine 10% sucrose pH 7 and administered to the mice at a dose of […] by i.v. injection at a QW×4 schedule. 3 days following each dose, 150 μL of whole blood was collected via submandibular method and placed in K2 EDTA tubes stored on ice. Blood neutrophil counts were performed on the day of collection by IDEXX labs. Body weights were recorded twice a week until study endpoint.

[3] = Murine plasma stability assay; assay type: in vitro ADME; settings: mouse, 37° C., read-out: Murine plasma stability assay, T1/2
Protocol: Frozen plasma was thawed at 37° C. and centrifuged at 4000 rpm to remove any clots and transferred to 96-well reaction plates by WuXi AppTec. Test compounds were added to the reaction plate at a final concentration of 2 μM and either stopped immediately or incubated at 37° C. for 5 minutes, 10 minutes, 30 minutes, 60 minutes, or 120 minutes. At the end of incubation, stop solution consisting of 200 ng/mL tolbutamide and 200 ng/mL labetalol in ACN was added to precipitate protein and mixed thoroughly. Samples were then transferred to a bioanalysis plate and shaken for 10 minutes prior to HPLC-MS/MS analysis of percent remaining compound.

For `CC[C@H](C)[C@@H]([C@@H](CC(=O)N1CCC[C@H]1[C@H](OC)[C@@H](C)C(=O)N[C@H](C)[C@@H](O)c1ccccc1)OC)N(C)C(=O)[C@@H](NC(=O)[C@H](C(C)C)N(C)C(=O)OCc1ccc(NC(=O)[C@H](CCCNC(N)=O)NC(=O)[C@@H](NC(=O)CCCC(=O)NCCC(=O)N(C)CC(=O)N(C)CC(=O)N(C)CC(=O)N(C)CC(=O)N[C@@H](C)C(=O)N2CCC[C@H]2C(=O)N[C@@H](CCCNC(=N)N)C(=O)N[C@@H](Cc2c[nH]c3ccccc23)C(=O)N[C@@H](CC(=O)O)C(=O)N[C@@H](C)C(=O)N2CCC[C@H]2C(=O)N[C@@H](CC(C)C)C(=O)N[C@@H](CCCNC(=N)N)C(=O)N[C@@H](CC(=O)O)C(=O)N2CCC[C@H]2C(=O)N[C@@H](C)C(=O)N[C@@H](CC(C)C)C(=O)N[C@@H](CCCNC(=N)N)C(=O)N[C@@H](CCC(N)=O)C(=O)N[C@@H](CC(C)C)C(=O)N[C@@H](CC(C)C)C(=O)O)C(C)C)cc1)C(C)C` [PRGN_WT_PDC], the body weight loss ([1]; 5 mg/kg single i.v. dose, recovered at Day 7) was roughly 15%, the “toxicity” value ([1]; 10 mg/kg single i.v. dose) was “significant toxicity” and the body weight loss ([1]; 10 mg/kg single i.v. dose) was “greater than 20%”. For the same compound, the blood neutrophil counts [2] was “reduced neutrophil counts” and the half-life at 2 μM [3] was 17.1 min.

From patent US20240285785A1, “TARGETING SORTILIN” (priority 2022, published 2024)
